Measured values reported in PMC3493480.

Experiments:
[1] = biological target: bromodomain protein 4 (Brd4), endogenous (human (endogenous in C33A and 293T)) (UniProt O60885)
[2] = biological target: bromodomain protein 4 (Brd4), endogenous (human (endogenous in C33A and 293T)) (UniProt O60885); remark: listed apart in the source
[3] = biological target: bromodomain protein 4 (Brd4), endogenous (human (endogenous in C33A and 293T)) (UniProt O60885); test: co-IP; nuclear extracts of transfected C33A or 293T cells IPed with polyclonal Brd4 antibody (NA or CA) or normal rabbit IgG, immunoblot; immuno-complexes unchanged at 300 mM NaCl, only slightly dissociated at 500 and 1000 mM

Substance | MCV episome copy number by qPCR in 293-4T cells (stably expressing MCV LT and sT) super-transfected with the Brd4 471-730 DNI construct, 24 h to 4 days: reduction (∼60% within the first 24 h) [1] [%] | replication of the MCV genome (LT expressed from the viral genome) in 293T cells co-transfected with 0, 7 or 9 µg pcDNA4C-Brd4 471-730, DpnI-resistant DNA by Southern blotting at 24 h: inhibition [2] [%] | percent of the MCV LT co-immunoprecipitated [3] [%]
MCV large T antigen (LT) expressed from pADL* (natural protein) | 94 | 92 | 20
MCV large T antigen (LT), Xpress-tagged, from pcDNA4C-MCV LT (natural protein) | – | – | 40
